The target of this experiment is MVN-DAVEI4-3Trp (not stated | HIV-1 (strain not stated)). The experiment in a line: ELISA.

Usually EC50 stands for the concentration giving half of the maximal effect. Consider “HIV-1 YU2 gp120 (from UniProt P35961 32-498) (natural protein)”, for which the EC50 is 79 nM.
